Source: the supplement of paper PMC10567573

B1: LOXL2 (parent)
chain: HISSCKLGPQVSLDPMKNVTCENG
B2: SMG5 (parent)
chain: FVSIAQSEQESLLQQAQAQFRMAQ

Variants of: B1
Experiment: protein stability index of a GFP-peptide fusion (GPS, HEK-293T) (PSI 1-6); higher = more stable
Conditions: c terminus: a fixed tail appended
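Further: lentivirally expressed fusions sorted by FACS into six bins by GFP to DsRed ratio, PSI derived from sequencing read proportions per bin multiplied by bin number.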

Compared with HISSCKLGPQVSLDPMKNVTCENL [G24L], HISSCKLGPQVSLDPMKNVTCENE [G24E] is higher in protein stability index: 3.45 for the first, 4.47 for the second.

Going from HISSCKLGPQVSLDPMKVVTCENG [N18V] to HISSCKLGPQVSLDPMKTVTCENG [N18T], the protein stability index rises from 3.78 to 3.89.

Going from HISSCKLGPQVSLDPMKGVTCENG [N18G] to HISSCKLGPQVSLDPMKFVTCENG [N18F], the protein stability index falls from 3.81 to 2.82.

First: HISSCKLGPQVSLDPMKKVTCENG [N18K]
Second: HISSCKLGPQVSLDPMKCVTCENG [N18C]
The protein stability index of the first is higher: 4.19 for the first, 3.11 for the second.

First: HISSCKLGPQVSLDPMKMVTCENG [N18M]
Second: HISSCKLGPQVSLDPMKYVTCENG [N18Y]
The protein stability index of the first is higher: 3.42 for the first, 3.08 for the second.

Compared with HISSCKLGPQVSLDPMKPVTCENG [N18P], HISSCKLGPQVSLDPMKLVTCENG [N18L] is lower in protein stability index: 3.92 for the first, 3.12 for the second.

Going from HISSCKLGPQVSLDPMKSVTCENG [N18S] to HISSCKLGPQVSLDPMKDVTCENG [N18D], the protein stability index rises from 3.2 to 4.34.

Going from HISSCKLGPQVSLDPMKIVTCENG [N18I] to HISSCKLGPQVSLDPMKQVTCENG [N18Q], the protein stability index rises from 3.4 to 4.2.

Compared with HISSCKLGPQVSLDPMKHVTCENG [N18H], HISSCKLGPQVSLDPMKRVTCENG [N18R] is lower in protein stability index: 3.81 for the first, 3.44 for the second.

First: HISSCKLGPQVSLDPMKEVTCENG [N18E]
Second: HISSCKLGPQVSLDPMKWVTCENG [N18W]
The protein stability index of the first is higher: 3.82 for the first, 2.88 for the second.

Compared with HISSCKLGPQVSLDPMKAVTCENG [N18A], HISSCKLGPQVSLDPMKNVTCELG [N23L] is lower in protein stability index: 3.76 for the first, 3.1 for the second.

First: HISSCKLGPQVSLDPMKNVTCEWG [N23W]
Second: HISSCKLGPQVSLDPMKNVTCEEG [N23E]
The protein stability index of the first is lower: 2.21 for the first, 4.63 for the second.

Going from HISSCKLGPQVSLDPMKNVTCEPG [N23P] to HISSCKLGPQVSLDPMKNVTCEHG [N23H], the protein stability index falls from 3.63 to 3.61.

Compared with HISSCKLGPQVSLDPMKNVTCEGG [N23G], HISSCKLGPQVSLDPMKNVTCEDG [N23D] is higher in protein stability index: 3.85 for the first, 4.38 for the second.

Going from HISSCKLGPQVSLDPMKNVTCEFG [N23F] to HISSCKLGPQVSLDPMKNVTCETG [N23T], the protein stability index rises from 2.93 to 3.77.

Going from HISSCKLGPQVSLDPMKNVTCEAG [N23A] to HISSCKLGPQVSLDPMKNVTCESG [N23S], the protein stability index rises from 3.53 to 3.91.

Going from HISSCKLGPQVSLDPMKNVTCEIG [N23I] to HISSCKLGPQVSLDPMKNVTCEKG [N23K], the protein stability index rises from 2.9 to 3.98.

Compared with HISSCKLGPQVSLDPMKNVTCEQG [N23Q], HISSCKLGPQVSLDPMKNVTCECG [N23C] is lower in protein stability index: 4.08 for the first, 4.01 for the second.

First: HISSCKLGPQVSLDPMKNVTCEYG [N23Y]
Second: HISSCKLGPQVSLDPMKNVTCEMG [N23M]
The protein stability index of the first is higher: 3.35 for the first, 3.26 for the second.

Going from HISSCKLGPQVSLDPMKNVTCERG [N23R] to HISSCKLGPQVSLDPMKNVTCEVG [N23V], the protein stability index falls from 3.58 to 3.53.

Going from HISSCKLGPQVSLDPMKNVQCENG [T20Q] to HISSCKLGPQVSLDPMKNVWCENG [T20W], the protein stability index falls from 4.02 to 2.31.

Compared with HISSCKLGPQVSLDPMKNVPCENG [T20P], HISSCKLGPQVSLDPMKNVYCENG [T20Y] is lower in protein stability index: 4.26 for the first, 3.58 for the second.

First: HISSCKLGPQVSLDPMKNVMCENG [T20M]
Second: HISSCKLGPQVSLDPMKNVRCENG [T20R]
The protein stability index of the first is lower: 3.64 for the first, 3.88 for the second.

First: HISSCKLGPQVSLDPMKNVFCENG [T20F]
Second: HISSCKLGPQVSLDPMKNVDCENG [T20D]
The protein stability index of the first is lower: 2.48 for the first, 4.4 for the second.

First: HISSCKLGPQVSLDPMKNVSCENG [T20S]
Second: HISSCKLGPQVSLDPMKNVKCENG [T20K]
The protein stability index of the first is lower: 4.08 for the first, 4.26 for the second.

Compared with HISSCKLGPQVSLDPMKNVICENG [T20I], HISSCKLGPQVSLDPMKNVNCENG [T20N] is higher in protein stability index: 3.84 for the first, 4.13 for the second.

First: HISSCKLGPQVSLDPMKNVECENG [T20E]
Second: HISSCKLGPQVSLDPMKNVHCENG [T20H]
The protein stability index of the first is higher: 4.16 for the first, 3.85 for the second.

Going from HISSCKLGPQVSLDPMKNVACENG [T20A] to HISSCKLGPQVSLDPMKNVLCENG [T20L], the protein stability index rises from 3.99 to 4.37.

Compared with HISSCKLGPQVSLDPMKNVVCENG [T20V], HISSCKLGPQVSLDPMKNVCCENG [T20C] is lower in protein stability index: 3.83 for the first, 3.37 for the second.

HISSCKLGPQVSLDPMKNVGCENG [T20G] gave a protein stability index of 3.87.

Variants of: B2
Experiment: as above
Conditions: c terminus: a fixed tail appended

Compared with RVSIAQSEQESLLQQAQAQFRMAQ [F1R], QVSIAQSEQESLLQQAQAQFRMAQ [F1Q] is higher in protein stability index: 3.42 for the first, 3.7 for the second.

Going from KVSIAQSEQESLLQQAQAQFRMAQ [F1K] to LVSIAQSEQESLLQQAQAQFRMAQ [F1L], the protein stability index falls from 3.77 to 3.3.

Compared with VVSIAQSEQESLLQQAQAQFRMAQ [F1V], SVSIAQSEQESLLQQAQAQFRMAQ [F1S] is lower in protein stability index: 3.88 for the first, 3.41 for the second.

Going from YVSIAQSEQESLLQQAQAQFRMAQ [F1Y] to PVSIAQSEQESLLQQAQAQFRMAQ [F1P], the protein stability index rises from 2.51 to 3.77.

First: DVSIAQSEQESLLQQAQAQFRMAQ [F1D]
Second: CVSIAQSEQESLLQQAQAQFRMAQ [F1C]
The protein stability index of the first is higher: 4.28 for the first, 2.75 for the second.

First: EVSIAQSEQESLLQQAQAQFRMAQ [F1E]
Second: AVSIAQSEQESLLQQAQAQFRMAQ [F1A]
The protein stability index of the first is lower: 4.16 for the first, 4.58 for the second.

First: GVSIAQSEQESLLQQAQAQFRMAQ [F1G]
Second: MVSIAQSEQESLLQQAQAQFRMAQ [F1M]
The protein stability index of the first is higher: 4.01 for the first, 2.97 for the second.

Going from HVSIAQSEQESLLQQAQAQFRMAQ [F1H] to WVSIAQSEQESLLQQAQAQFRMAQ [F1W], the protein stability index falls from 3.9 to 2.65.

Going from IVSIAQSEQESLLQQAQAQFRMAQ [F1I] to TVSIAQSEQESLLQQAQAQFRMAQ [F1T], the protein stability index rises from 2.96 to 4.04.

First: NVSIAQSEQESLLQQAQAQFRMAQ [F1N]
Second: FGSIAQSEQESLLQQAQAQFRMAQ [V2G]
The protein stability index of the first is higher: 3.93 for the first, 3.65 for the second.

Going from FMSIAQSEQESLLQQAQAQFRMAQ [V2M] to FPSIAQSEQESLLQQAQAQFRMAQ [V2P], the protein stability index rises from 2.9 to 3.8.

Compared with FQSIAQSEQESLLQQAQAQFRMAQ [V2Q], FSSIAQSEQESLLQQAQAQFRMAQ [V2S] is higher in protein stability index: 2.9 for the first, 3.45 for the second.

Compared with FRSIAQSEQESLLQQAQAQFRMAQ [V2R], FLSIAQSEQESLLQQAQAQFRMAQ [V2L] is lower in protein stability index: 3.45 for the first, 2.99 for the second.

Going from FASIAQSEQESLLQQAQAQFRMAQ [V2A] to FFSIAQSEQESLLQQAQAQFRMAQ [V2F], the protein stability index falls from 3.24 to 2.22.

First: FCSIAQSEQESLLQQAQAQFRMAQ [V2C]
Second: FKSIAQSEQESLLQQAQAQFRMAQ [V2K]
The protein stability index of the first is lower: 2.82 for the first, 3.12 for the second.

Compared with FISIAQSEQESLLQQAQAQFRMAQ [V2I], FESIAQSEQESLLQQAQAQFRMAQ [V2E] is higher in protein stability index: 2.59 for the first, 3.69 for the second.

Going from FNSIAQSEQESLLQQAQAQFRMAQ [V2N] to FDSIAQSEQESLLQQAQAQFRMAQ [V2D], the protein stability index falls from 4.14 to 3.77.

For FHSIAQSEQESLLQQAQAQFRMAQ [V2H], the protein stability index was 2.43.
